Kd data for one substance are collected here from patent publication US20200113997A1.

pKd: −log10 of the molar value.

The target of this assay is Man9-V3 glycopeptide (HIV-1 (clade B JRFL mini-V3)). The experiment in a line: BLI, biotinylated peptide on streptavidin sensor, bivalent avidity model. (BLI is a label-free optical method that tracks binding on a fibre tip over time.)

DH270.1 (antibody): the pKd was 6.48.

Broadly, the pKd is −log10 of the Kd, conventionally taken in molar units. A low value points to a large Kd.
